We go through 2 proteins from publication PMC3271731 (Nature, 2011).

Data set [1] deals with the molecule itself. The data set is described as follows: crystal structure.
Data set [2] deals with the molecule itself. The data set is described as follows: crystal structure. This is another data set of the same source.

Where two headings read alike, the source gives them in different places.

B1: Pseudomonas aeruginosa 3-methylcrotonyl-CoA carboxylase β subunit (enzyme, UniProt Q9I297 1-535, looked up)
chain: MAILHTQINPRSAEFAANAATMLEQVNALRTLLGRIHEGGGSAAQARHSARGKLLVRERINRLLDPGSPFLELSALAAHEVYGEEVAAAGIVAGIGRVEGVECMIVGNDATVKGGTYYPLTVKKHLRAQAIALENRLPCIYLVDSGGANLPRQDEVFPDREHFGRIFFNQANMSARGIPQIAVVMGSCTAGGAYVPAMSDETVMVREQATIFLAGPPLVKAATGEVVSAEELGGADVHCKVSGVADHYAEDDDHALAIARRCVANLNWRKQGQLQCRAPRAPLYPAEELYGVIPADSKQPYDVREVIARLVDGSEFDEFKALFGTTLVCGFAHLHGYPIAILANNGILFAEAAQKGAHFIELACQRGIPLLFLQNITGFMVGQKYEAGGIAKHGAKLVTAVACARVPKFTVLIGGSFGAGNYGMCGRAYDPRFLWMWPNARIGVMGGEQAAGVLAQVKREQAERAGQQLGVEEEAKIKAPILEQYEHQGHPYYSSARLWDDGVIDPAQTREVLALALSAALNAPIEPTAFGVFRM
With B1, the “stoichiometry N” value in the data set “crystal structure [1]” came to 6.

B2: Pseudomonas aeruginosa 3-methylcrotonyl-CoA carboxylase α subunit (enzyme)
chain: MNPDYRSIQRLLVANRGEIACRVMRSARALGIGSVAVHSDIDRHARHVAEADIAVDLGGAKPADSYLRGDRIIAAALASGAQAIHPGYGFLSENADFARACEEAGLLFLGPPAAAIDAMGSKSAAKALMEEAGVPLVPGYHGEAQDLETFRREAGRIGYPVLLKAAAGGGGKGMKVVEREAELAEALSSAQREAKAAFGDARMLVEKYLLKPRHVEIQVFADRHGHCLYLNERDCSIQRRHQKVVEEAPAPGLGAELRRAMGEAAVRAAQAIGYVGAGTVEFLLDERGQFFFMEMNTRLQVEHPVTEAITGLDLVAWQIRVARGEALPLTQEQVPLNGHAIEVRLYAEDPEGDFLPASGRLMLYREAAAGPGRRVDSGVREGDEVSPFYDPMLAKLIAWGETREEARQRLLAMLAETSVGGLRTNLAFLRRILGHPAFAAAELDTGFIARHQDDLLPAPQALPEHFWQAAAEAWLQSEPGHRRDDDPHSPWSRNDGWRSALARESDLMLRCRDERRCVRLRHASPSQYRLDGDDLVSRVDGVTRRSAALRRGRQLFLEWEGELLAIEAVDPIAEAEAAHAHQGGLSAPMNGSIVRVLVEPGQTVEAGATLVVLEAMKMEHSIRAPHAGVVKALYCSEGELVEEGTPLVELDENQA
modifications: biotinylated Lys681 (numbered by the equivalent residue of HsMCC)
Regarding B2, the “stoichiometry N” value in “crystal structure [2]” is 3.

Usually stoichiometry N stands for a count of units in the complex or per binding partner.
